Experimental data taken from article PMC4660580, “Mode of interaction of the Gαo subunit of heterotrimeric G proteins with the GoLoco1 motif of Drosophila Pins is determined by guanine nucleotides” (Bioscience Reports, 2015).
Values belong to the molecule of their own block, whether it stands above or below them. Ends that are not written are not given here. Peptide text beside a SMILES is read from it. * marks the point of attachment. Dansyl = CN(C)c1cccc2c(S(=O)(=O)*)cccc12

Experiments:
Gαo-GDP = Gαo-GDP (Drosophila melanogaster, UniProt P16378); experiment: biochemical
Procedure: (§1) Hexahistidine-tagged Drosophila Gαo, Gαo[W132F; W212F] and Gαo[W132F; W259F] were purified following. In brief, Top10 bacteria transformed with the corresponding construct were grown in LB media until an OD600=0.6, expression was induced with 0.1 mM IPTG and cells further grown overnight at room temperature. Cells were harvested, resuspended in PBS supplemented with Complete Protease Inhibitor cocktail (Roche) and lysed with Lysozyme and sonication. Binding of the His6 tagged proteins to the Ni-NTA agarose was conducted in 10 mM Imidazole in PBS. After washing in 20 mM Imidazole/PBS the proteins were eluted in 200–250 mM Imidazole/PBS. […] The 36-mer GoLoco1 peptide and the GoLoco1 peptide with the dansyl (5-(dimethylamino)naphthalene-1-sulfonyl) group attached to the side chain of the N-terminal lysine were synthesized by Pepscan Presto BV. Non-dansylated GoLoco1 was dissolved in water, dansyl-GoLoco1 was dissolved at 10 mM in 50% propan-2-ol and stored at -20°C.
(§2) Fluorescence measurements were performed at RT using the Biotek SynergyMx plate reader. For all experiments, the Gαo subunits were pre-incubated with 1 mM GDP or GTPγS for >30 min at RT. For FRET measurements, preloaded Gαo was added in a final concentration of 10 μM to increasing concentration of dansylated GoLoco1 in HKB (50 mM Hepes-KOH, 100 mM KCl, 10 mM NaCl, 2 mM EGTA, 5 mM MgCl2, 1 mM DTT) and incubated for 30 min before measurement.

Gαo-GTPγS [1] = molecular target: T1, Gαo-GTPγS (Drosophila melanogaster, UniProt P16378); experiment: biochemical; format: binding; parameters: His6 (hexahistidine); made in house; host or cells: E. coli Top10
Procedure: Trp-to-dansyl FRET was measured as above.

[2] = molecular target: Hexahistidine-tagged Drosophila Gαo (class II isoform), wild type (Drosophila); experiment: FRET or BRET; competition: Gαo preloaded with GDP and dansylated GoLoco1 at 1:1 (5–10 μM), pre-incubated 10 min, then increasing unlabelled GoLoco1 in HKB, 30 min, RT; Trp-to-dansyl FRET
[3] = molecular target: Hexahistidine-tagged Drosophila Gαo (class II isoform), wild type (Drosophila); experiment: FRET or BRET; competition: Gαo preloaded with GTPγS and dansylated GoLoco1 at 1:1 (5–10 μM), pre-incubated 10 min, then increasing unlabelled GoLoco1 in HKB, 30 min, RT; Trp-to-dansyl FRET
Gαo-GTPγS [4] = molecular target: T1, Gαo-GTPγS; experiment: biochemical
Procedure: as §1, §2

[5] = molecular target: Hexahistidine-tagged Drosophila Gαo (class II isoform), wild type (Drosophila); experiment: FRET or BRET; Trp-to-dansyl FRET (excitation 280 nm, emission 535 nm), saturation: 10 μM Gαo preloaded with 1 mM GTPγS added to increasing dansylated GoLoco1; HKB buffer, 30 min, RT
[6] = molecular target: Hexahistidine-tagged Drosophila Gαo (class II isoform), wild type (Drosophila); experiment: FRET or BRET; quenching of the donor: tryptophan fluorescence (excitation 280 nm, emission 330 nm) of 5 μM Gαo preloaded with GDP, 30 min with dansylated against unlabelled GoLoco1, RT; E = 1 - FD-A/FD
[7] = molecular target: Hexahistidine-tagged Drosophila Gαo[W132F; W212F] (Drosophila); experiment: as above
[8] = molecular target: Hexahistidine-tagged Drosophila Gαo[W132F; W259F] (Drosophila); experiment: as above
[9] = molecular target: Hexahistidine-tagged Drosophila Gαo[W132F; W259F] (Drosophila); experiment: FRET or BRET; quenching of the donor: tryptophan fluorescence (excitation 280 nm, emission 330 nm) of 5 μM Gαo preloaded with GTPγS, 30 min with dansylated against unlabelled GoLoco1, RT; E = 1 - FD-A/FD
[10] = molecular target: Hexahistidine-tagged Drosophila Gαo (class II isoform), wild type (Drosophila); experiment: FRET or BRET; Trp-to-dansyl FRET (excitation 280 nm, emission 535 nm), saturation: 10 μM Gαo preloaded with 1 mM GDP added to increasing dansylated GoLoco1; HKB buffer (50 mM Hepes-KOH, 100 mM KCl, 10 mM NaCl, 2 mM EGTA, 5 mM MgCl2, 1 mM DTT), 30 min, RT

T1 sequence (P16378 other isoform, or with tags, fused parts or gaps): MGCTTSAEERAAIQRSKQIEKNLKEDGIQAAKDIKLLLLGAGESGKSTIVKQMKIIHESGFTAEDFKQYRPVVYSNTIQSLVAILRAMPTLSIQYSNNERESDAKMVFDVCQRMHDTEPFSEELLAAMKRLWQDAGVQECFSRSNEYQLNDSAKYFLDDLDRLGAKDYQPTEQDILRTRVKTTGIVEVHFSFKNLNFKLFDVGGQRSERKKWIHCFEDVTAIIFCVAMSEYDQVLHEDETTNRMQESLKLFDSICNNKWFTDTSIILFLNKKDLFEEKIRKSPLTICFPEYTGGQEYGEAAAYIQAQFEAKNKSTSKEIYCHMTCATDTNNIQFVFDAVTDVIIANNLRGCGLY
Chain of Gαo-GDP (P16378 other isoform, or with tags, fused parts or gaps): as above

Molecule: CC[C@H](C)[C@H](NC(=O)[C@H](CO)NC(=O)[C@H](CS)NC(=O)[C@H](CCCNC(=N)N)NC(=O)[C@H](CCC(N)=O)NC(=O)[C@H](CC(=O)O)NC(=O)[C@H](CC(=O)O)NC(=O)[C@H](CCSC)NC(=O)[C@H](CCCNC(=N)N)NC(=O)[C@H](CCCCN)NC(=O)[C@H](CO)NC(=O)[C@H](CCC(N)=O)NC(=O)[C@H](CO)NC(=O)[C@H](CCCNC(=N)N)NC(=O)[C@H](CO)NC(=O)[C@H](CC(C)C)NC(=O)[C@H](CCSC)NC(=O)[C@H](CCC(=O)O)NC(=O)[C@H](Cc1ccccc1)NC(=O)[C@H](Cc1ccccc1)NC(=O)[C@H](CC(=O)O)NC(=O)[C@H](CC(=O)O)NC(=O)[C@H](CC(=O)O)NC(=O)[C@@H](N)CCCCNS(=O)(=O)c1cccc2c(N(C)C)cccc12)C(=O)N[C@@H](CCCCN)C(=O)N[C@H](C(=O)N[C@@H](CC(N)=O)C(=O)N1CCC[C@H]1C(=O)N[C@@H](CO)C(=O)NCC(=O)N[C@@H](C)C(=O)N1CCC[C@H]1C(=O)N[C@@H](C)C(=O)N[C@H](C(=O)N[C@@H](C)C(=O)N[C@H](C(=O)O)[C@@H](C)O)C(C)C)C(C)C [dGoLoco1] (H-K(Dansyl)DDDFFEMLSRSQSKRMDDQRCSIKVNPSGAPAVAT-OH)
- Kd (Gαo-GDP): 4.6 µM
- Kd (Gαo-GTPγS [1]): 2.1 µM

- Ki [2]: 17.6 µM
- Ki [3]: 10.6 µM
Molecule: GoLoco1 peptide of Drosophila Pins (unlabelled)

Molecule: KDDDFFEMLSRSQSKRMDDQRCSIKVNPSGAPAVAT [GoLoco1]
- Ki (Gαo-GDP): 17.6 µM
- Ki (Gαo-GTPγS [4]): 10.6 µM

- Kd [5]: 2.1 µM
- FRET efficiency E [6]: 0.474
- FRET efficiency E [7]: 0.478
- FRET efficiency E [8]: 0.544
- FRET efficiency E [9]: 0.127
- Kd [10]: 4.6 µM
Molecule: dansylated GoLoco1 peptide of Drosophila Pins
